# Test results: the nanobody polyreactivity screen of Harvey et al. (2022)
# Assay: yeast display, Sf9 membrane polyspecificity reagent, FACS + sequencing; frameworks hold sequencing errors
# In short: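 Polyreactivity labels are assigned by the sorting gate from which each nanobody was recovered. The gates were low and high (top ~1%), set on anti-HA fluorescence for expression and streptavidin fluorescence for reagent binding. Before sorting, galactose-induced (36–48 hours) yeast display cells were stained for 1 hour at 4 °C with 10% biotinylated, detergent-solubilized Sf9 membrane reagent.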
row,Sequence,polyreactivity (PSR sort gate)
1,QVQLVESGGGLVQAGGSLRLSCAASGRIFRGNTMGWYRQAPGKERELVATINGRGGSTYYADSVKGRFTISRDNAKNTVYLQMNSLKPVDTAVYYCAARRGYPRFEYWGQGTQVTVSS,high polyreactivity
2,QVQLVESGGGLVQAGGSLRLSCAASGYTFWYYTMGWYRQATGKERELVATISSNGRRTYYADSVKGRFTISRDNAKNTVYLQMNSLYPEDTAVYYCAAVLYRSWVYTTHDYWGHGTQVTVSS,high polyreactivity
3,QVQLEESGGGLFQAGGSLRLICAATGSIFRVYVMGWYIQAPGKERELVAAITSSDGTTYYADSVKGRFTISRDNAKNTVYLQMNSLKPEDTALYYCNAEFYSPPVVGPRYWYPGFYWGQGTQVTVSS,low polyreactivity
4,QDHLVESGGGLDQAGGSLRLSCAASGRILGDYAMGWYRQAPGKEREFVAAIDYNGGSTNYADSVKGRFTISRDNAKNTVYLQMNSLKPEDTAVYYCAAPGFPSRNGFGYWGQGTQVTVSS,low polyreactivity
5,QVQLVESGGGLVQAGGSLRLSCAASGSIFRNYAMGWYRQAPGKERELVARISYSGGRTHYADSVKGRFTISRDNAKNTVYLQMNSLKPEDTAVYYCAAPFHFTHFQGNYYWGQGTQVTVSS,low polyreactivity
6,QVQLEESGGGVVQAGGSLRLSCAASGIIFYRYAMGCYRQAPGKERELVAAISKNGGRTYYADSVKGRFTISRDNAKNTVYLQMNSLKPEDTAVYYCNARYGYYLYWGQGTQVTVSS,high polyreactivity
7,QVQLVESGGGLVQAGGSLRLSCAASRFIFSFYVMGWYRQAPAKETELVAAISTSGASTYYADSVKGRFTITRDNAKKTVYLQMNSLKPEDTAVYYCNVGYRYGGYNYWGQGTQVTVSW,high polyreactivity
8,QVQLVESVGGLVQAGGSLRLSGADSGITFGVYAMGWYRQAPGKVRELVAAICVSGGSTYYADSVKGRFTISRDNAKNTVYLHMNSLKPEVTAVYYCAADRYGHFGYWGQGTQVTLSS,high polyreactivity
9,QVQLVESGGGLVQAGGSLRLSCAASGRTFLWYAMGWYRQAPGKERELVAAITTAGSTYYADSVKGRFTISRDNAKNTVYLQMNSLKPEDTAVYYCNRLTYAYPPPVLGVGHDSWGQGTQVTVSS,low polyreactivity
10,QVQLVESGGGLVQAGGSLRLSCAASGSTFYSYAMGWYRQAPGKERELVAAISWNGGSTYYADSVKGRFTISRDNAKNTVYLQMNRLKPEDTAVYYCAALRYVHGYDYWGQGTQVTVSS,high polyreactivity
11,QVQLVESGGGLVQAGGSLRLSCAASGYTFSLNAMGWYRQAPGKERELVAAISGRTGRTYYADSVKGRFTISRDNAKNTVYLQMNSLKPEDTAVYYGNKVYPYQRRTRFDYWGQGTQVTVSS,high polyreactivity
12,QVQLVESGGGLVQAGGSLRLSCAASGLTFVENAMGWYRQAPGKERELVASISNGGSTYYADSVKGRFTISRDNAKNTVYLQMNSLKQEDTAVYYCAAGYWAGYGSTAPYDYWGQGTQVTVSS,low polyreactivity
13,QVQLVESGGGLVQAGGSLRLSCAASGFIFVYNDMGWYRPAPGKERELVASISNGDNTNYADSVKGRFTISRDNAKNTVYLQMNSLKQEDTAVYYCAARGTIYVLGVPARPVPDGDYWGQGTQVTVSS,low polyreactivity
14,QVQLVESVGGLVQAGGCLRLSCDASGFIFTYVMGWYRQAAGKERELVAVITNGGSTYYADSVKGRFTISRDNAKNSFYLQMNSLKPEDTAVYYCAARDRFRYDAYYYWGLGTQVTVSS,high polyreactivity
15,QVQLVESGGGLVQAGGSLRLSCAASGSIFTRYVMGWYRQARGKERELVASISGRGSSTYYADSVKGRFTISRDNAKNTVYLQMNSLKPEDTAVYYCAAEIVVFYSEGQRNTFYYWGQGTQVTVSS,high polyreactivity
16,QVQLVESGGGLVQAGGSHRLSCAASGLILGINAKGWYRQAPGTERELVAAISSSGGRTSYADSVKGRFTISRDNGKNTVYLQMNSLNPEDTAVYYCAKRRTTYSHYDYWGHGTQVTVSS,low polyreactivity
17,QVQLVESGGGLVQAGGSLRLSCAASGFTFTQNAAMGWYRQAPGKERELVGAISSGGRTYFADSVKGRFTISRDNAKNTVYLQMNSLKPEDTAVYYCAAVYRRSDFRGAKDGYYYWGQGTQVTVSS,low polyreactivity
18,QVQLVESGGGLVQAGGSLRLSCAASGGTFSKYAMGWYRQAPGKEREFVAAITVSGGGSYYADSVKGRFTISRDNAKNTVYLQMNSLKPEDTAVYYCAADLAWTASDYWGQGTQVTVSS,low polyreactivity
19,QVQLVESGGGLVQAGGRLRLSCAASGRTFANYAMGWYRQAPGKERELVAAITGSGSTNYADSVKGRFTISRDNAKNTVYLQMNSLKPEDTAVYYCAAAYKPYRCLYYPNSIDFGYWGQGTQVTVSS,high polyreactivity
20,QVQLVESGGGLVQAGGSLRLSCAASGRIFTGNVMGWYRQAPGKERELVAAISRRGGGTYYADSVKGRFTISRDNAKNTVYLQMNSLKPEDTAVYYCAAQYRSQGQPKGGVLYYYWGQGTQVTVSS,high polyreactivity
21,QDQLVESGGGLVQAGGSLRLSCAASGFNFYKYAMGWYRQAPGKERELVAAITGRGGSTYYADSVKGRFTISRDNAKNTVYLRMNSLNPEDTAVYYCAASQRSGHPSYDYWGQGTQVTVSS,high polyreactivity
22,QVQLVESGGGLVQAGGSLRLSCAASGRTFLLYAMGWYRQAPGKERELVAAISIGGGSTRYADSVKGRFTISRDNAKNTVYLQMNSLKPEDTAVYYCAALGRRGGDYWGQGTEVTVSS,high polyreactivity

row,Sequence,polyreactivity (PSR sort gate)
1,QVQLVESGGGLVQAGGSLRLSCAASGSIFSRYAMGWYRQAPGKERELVAGISRGSSTYYADSVKGRFTISRDNAKNTVYLQMNSLKPEDTAVYYCARSGGSGGYYYWGQGTQVTVSS,low polyreactivity
2,QVQLVESGGGLVQAGGSLRLSCAASGSTFTTYAMGWYRQAPGKEREFVASIRWRGGNTYYADSVKGRFTISRDNAKNTVYLQMNSLKPEDTAVYYCARRVDYISSKYGYWGQGTQVTVSS,high polyreactivity
3,QVQLVESGGGLVQAGGSLRLSCAASGFTLYYYMGWYRQAPGKERELVARIRATGGSTYYADSVKGRFTISRDNAKNTVDLQMNSLKPEDTAVYYCAAKGVPRRYRPDMYYWGQGTQVTVSS,high polyreactivity
4,QVQLVESGGGLVQAGGSLRLSCAASGRTFSPYAMGWYRQAPGKERELVAAITSRGASTYYADSVKGRFTISRDNAKNTVYLQMNSLKPEDTAVYDCNSGRTYRRLGDYWGQGTQVTVSS,high polyreactivity
5,QVQLVESGGGLDQAGGRLRLSCAASGITVGYNDMGRYRQARGKERELVAAINRGASTNYADSVKGRFTISRDNAKNTVYFQMNCLKPEDTAVYYCNADHRDTFIWVGLPHMDYWGQGTQVTVSS,low polyreactivity
6,QVQLVESGGGLVQAGGSLRLSCAASGSTFDINAMGWYRQAPGKEWELVAAITWSGDSTYYADSVKGRFTSSRDYAKHTVSLQMNSLKPEDTAVYYCAADYPYSYYEYSSYYYWGQGTQVTVSS,low polyreactivity
7,QVQLVESGGGLVQAGGSLRLSCAASGFTFHYNAMGWYRQAPRKEREFVAAISGSGDRTYYADSVKGRFTISRDNAKNTVYLQMNSLKPEDTAVYYCATSVRQNYFYSYDYWGQGTQVTVSS,high polyreactivity
8,QVQLVESGGGLVQAGGSLRLSCAASGSTFLVNGMGWYRQAPGKERELVAAISSGDGSTYYADSVKGRFTISRDNAKNTVYLQMNSLKPEDTAVYYCAVDCWWTGYDYWGQGTQVTVSS,low polyreactivity
9,QVQLVESGGGLVQAGGSLRLSCAASGRTFSTNAMGWYRQAPGKEREFVAAITGSGGSTYYADSVKGRFTISRDNAKNTVYLQMNSLKPEDTAVYYCAKRSAWHTYRYGYWGQGTQVTVSS,high polyreactivity
10,QVQLVESAGGLVQAGGSLRLSSAASGIIFSEYAMGWYRPAPGKERELVAAISKSGGRTYYADSVKGRFTISGVNAKNTVDLQMNSLKPEDTAVYYCAARHAPILGDHGMKYWGQGTQVTVSS,high polyreactivity
11,QVQLVESGGGLVQAGGSLRLSCAASGSTFHLNAMGWYRQAPGKERELVAAISWDGSSTSYADSVKGRFTISRDNANNTVYLQMNSLKPEDTAVYYCAADDTLDRVPTTFIDGSPGYGYWGQGTQVTVSS,low polyreactivity
12,QVQLVESGGGLVQAGGSLRLSCAASGITFKPNTMGWYRQAPGKERELVAAIDWSGSSTYYADSVKGRFTISRDNAKNTVYLHMNSLKPEDTAVYYCAADEYEYFWSYDYWGQGTQVTVSS,low polyreactivity
13,QVQLVESGGGLVQAGVSLRLSCAASGLIFVFYAMGWYRQAPGKERELVAAISRSGTSTYADSVKGRFTISRDNAKNTVYLQMNSLKPADTAVYYCNAYRYYSPYGYWGQGTQVTVSS,low polyreactivity
14,HVQLQESGRRPGAAGGSPRMSCAASGNIYWVAVMGRYRQAPGEERELVASIGFGCTTYYADSVKCRFTISRDNAKNTVYLQMISLKPEDTAVYYCAAPHYDWGELDYWGQGTQVPVSS,low polyreactivity
15,QVQLVESGGGLVQAGGSLRLSCAASGFTISQYAMGWYRQAPGKERELVAVISINGGSTYYADSVKGRFTISRDNAKNTVYLEKNSLKPEDTAVYYCAADDTDSEDYGYDYWGQGTQVTVSS,low polyreactivity
16,QVQLVESGGGLVQAGGSLRLSCAASGSIFYGNAMGWYRQAPGKERELVAAIDGTGASTYYADSVKGRFTISRDNAKNTVYLQMNSLKPEDTAVYYCNKALTSKDYPVRTVERDYWGQGTQVTVSS,low polyreactivity
17,QVQLVESWGGLVQAGGSLRLSCAASGRIFHRNTMGWYRQAPGKERELVAAIRSGSRTYYADSVKGRFTISRDNAKNTVYLQMNSLKPEDTAVYDCATTFGTPRYDYWGQGTQVTVSS,high polyreactivity
18,QVQLVESGGGLVQAGGRLRLSCAASGLIIEWYAMGWFRQAPGKERELVAAITGRGSSTFYADSVKGRFTISRDNAKNTVYLQMNSLKPEDTGVYYCAVATVKQYRSDYWGQGTQVTVSS,low polyreactivity
19,QVQLVESGGGLVQAGGSLRLSCAASGSIFIYNAMGWYRQAPGKERELVASITYRGGSTYYADSVKGRFTISRDKAKNTVYLQMNSLKPEDTAVYYCNAPQYFSYSWPYPREYDYWGQGTQVTVSS,high polyreactivity
20,QVQLVESRGGLVQAGGSLRLSCAASGRIFNVYAMGWYRQAPGKERELVAGISGSGGRTYYADSVKGRFTISRDNAKNTVYLQMNSLKPEDTAVYYCNTVRHYSSWGQGTQVTVSS,high polyreactivity
21,QVQLVESGGGLVQAGGSLRLSCAASGSTFKRYAMGWYRQAPGKERELVATINSGTSTNYADSVKGRFTISRDNAKNTVYLEMNSLKPEETAVYYCAKSFRRSVGGYGYDYWGQGTQVSVSS,low polyreactivity
